# Results taken from US12667624B2, “GIP derivative, long-acting conjugate thereof, and pharmaceutical composition comprising same” (HANMI PHARM. CO., LTD., priority 2020, dated 2026).
# Non-standard residues stand in square brackets, D forms with d. No end group written: not given here. Aib = CC(C)(N)C(=O)O
# Columns and labels:
# human GIP receptor = target: T1, human GIP receptor (Homo sapiens, UniProt P48546); experiment: In vitro activity of long-acting GIP conjugates: cAMP accumulation in CHO cells expressing human GIP receptor; format: cell-based; conditions: relative potency from cAMP EC50, CHO cells expressing human GIP receptor; PEG-immunoglobulin Fc conjugates
# T1 construct: expressed in transfected cells; host or cells: CHO (Chinese hamster ovary)
# T1 sequence (P48546 22-466): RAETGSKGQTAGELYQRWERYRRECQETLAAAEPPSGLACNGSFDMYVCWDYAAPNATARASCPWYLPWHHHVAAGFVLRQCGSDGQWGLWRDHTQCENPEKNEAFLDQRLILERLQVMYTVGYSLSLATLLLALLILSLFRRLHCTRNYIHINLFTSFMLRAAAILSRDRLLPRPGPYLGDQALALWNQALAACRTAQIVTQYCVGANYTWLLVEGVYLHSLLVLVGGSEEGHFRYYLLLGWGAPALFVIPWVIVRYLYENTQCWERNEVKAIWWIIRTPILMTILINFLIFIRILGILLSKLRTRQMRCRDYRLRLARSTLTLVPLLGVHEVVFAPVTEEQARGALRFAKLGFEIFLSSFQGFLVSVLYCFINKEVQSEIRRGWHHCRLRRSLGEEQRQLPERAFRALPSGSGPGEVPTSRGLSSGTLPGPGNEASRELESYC
# Method: To measure the activity of the long-acting GIP conjugates prepared in Example 3, a method of measuring cell activity in vitro using a cell line transformed with the GIP receptor was used in the same manner as in Example 2.
# In detail, to measure the activity of the long-acting GIP derivatives in the human GIP receptors, human GIP was serially diluted from 16 nM to 0.000015 nM by 4 folds, and the long-acting GIP derivatives prepared in Example 1 were each serially diluted from 50 nM to 0.000048 nM by 4 folds. The culture medium was removed from the cultured CHO cells where the human GIP receptors were expressed, 5 μl of each of the serially diluted materials was added to the cells, and then, 5 μl of buffer containing cAMP antibody was added thereto, followed by incubation at room temperature for 15 minutes. Next, the cells were lysed by adding 10 μl of detection mix containing cell lysis buffer, and then allowed for a reaction at room temperature for 90 minutes. The cell lysate obtained by the completion of the reaction was applied to the LANCE cAMP kit (PerkinElmer, USA) to calculate the EC50 value through the accumulated cAMP to be compared with each other.
# THP-1 cell line [1] = experiment: Expression of inflammation-related genes in LPS-treated THP-1 cell line (real-time PCR); format: cell-based, human; conditions: THP-1, LPS 1 μg/mL; native GIP 10 μM, long-acting GIP derivative 1 or 10 μM; FIG. 2A
# Excerpt: To confirm the in vitro anti-inflammatory effect of the long-acting GIP derivative conjugate on vasculitis, a human monocyte/macrophage cell line, THP-1 cell line, was used. A macrophage is known to secrete cytokines and chemokines in the early stage of infection in vasculitis-infected tissue, induce the progress of inflammation by utilizing other immune cells, and form giant cells. Therefore, identification of the anti-inflammatory effect in macrophages is referred to as an appropriate in vitro system for evaluating the efficacy on vasculitis.
# The THP-1 cell line was cultured in RPMI 1640 medium supplemented with 10% fetal bovine serum (FBS), 100 μg/mL of streptomycin, 100 U/mL of penicillin, and […] of β-mercaptoethanol, under conditions of a temperature of 37° C. and 5% carbon dioxide. […] For use as the long-acting GIP derivative, the long-acting GIP conjugate (SEQ ID NO: 17) prepared in Example 3 was used.
# RNA was isolated from the completely treated THP-1 cell line by using the RNeasy Mini Kit (Qiagen, US), and then cDNA was synthesized by using the iScript™ cDNA Synthesis Kit (Bio-rad, U.S.). The synthesized cDNA was referred to confirm the expression levels of inflammation-related genes by using the QuantStudio 6 Flex Real-Time PCR System (Applied Biosystems, U.S.). Here, the Delta Ct method was used, and beta-actin was used as a housekeeping gene. […]
# THP-1 cell line [2] = experiment: TNF-α concentration in medium of LPS-treated THP-1 cell line (ELISA); format: cell-based, human; conditions: THP-1, LPS 0.1 pg/mL; native GIP 1 μM, long-acting GIP derivative 0.1 μM or 1 μM; FIG. 2B
# Excerpt: Here, the medium was quantified by using Human TNF alpha ELISA Kit (Abcam, US).
Substance,In vitro activity of long-acting GIP derivative compared to human native GIP in human GIP receptor (%) (human GIP receptor),"expression levels of inflammation-related genes IL-6, IL-12, IL-1β and TNF-α (THP-1 cell line [1])",concentration of TNF-α in the medium (THP-1 cell line [2])
"YAibEGT FISDY SIAibLD KQAAAib EFVNW LLAibGG PSSGA PPPSC (Y[Aib]EGTFISDYSI[Aib]LDKQAA[Aib]EFVNWLL[Aib]GGPSSGAPPPSC) [SEQ ID NO: 21, GIP derivative peptide]",148.5%,,
"YAibEGT FISDY SIAibLD KQAAAib EFVNW LLAibGH PSSGA PPPSC (Y[Aib]EGTFISDYSI[Aib]LDKQAA[Aib]EFVNWLL[Aib]GHPSSGAPPPSC) [SEQ ID NO: 24, GIP derivative peptide]",123.3%,,
"YAibEGT FISDYSIALEKQAQQDFVNWLLAGGPSSGAPPPSC (Y[Aib]EGTFISDYSIALEKQAQQDFVNWLLAGGPSSGAPPPSC) [SEQ ID NO: 17, GIP derivative peptide]",153.2%,,
"YAibEGT FISDYSIAMDAIAQQDFVNWLLAQKGKKNDWKHNITQC (Y[Aib]EGTFISDYSIAMDAIAQQDFVNWLLAQKGKKNDWKHNITQC) [SEQ ID NO: 11, GIP derivative peptide]",84.8%,,
glucose-dependent insulinotropic polypeptide [native GIP],,decreased,decreased
